Measurements published in patent publication US20070093443A1 (CATALYST BIOSCIENCES, published 2007).

T1: alpha-2 macroglobulin (in human plasma) (human, UniProt P01023 24-1474)
T1 construct: Not purified: the endogenous protein of the plasma
T1 sequence (looked up): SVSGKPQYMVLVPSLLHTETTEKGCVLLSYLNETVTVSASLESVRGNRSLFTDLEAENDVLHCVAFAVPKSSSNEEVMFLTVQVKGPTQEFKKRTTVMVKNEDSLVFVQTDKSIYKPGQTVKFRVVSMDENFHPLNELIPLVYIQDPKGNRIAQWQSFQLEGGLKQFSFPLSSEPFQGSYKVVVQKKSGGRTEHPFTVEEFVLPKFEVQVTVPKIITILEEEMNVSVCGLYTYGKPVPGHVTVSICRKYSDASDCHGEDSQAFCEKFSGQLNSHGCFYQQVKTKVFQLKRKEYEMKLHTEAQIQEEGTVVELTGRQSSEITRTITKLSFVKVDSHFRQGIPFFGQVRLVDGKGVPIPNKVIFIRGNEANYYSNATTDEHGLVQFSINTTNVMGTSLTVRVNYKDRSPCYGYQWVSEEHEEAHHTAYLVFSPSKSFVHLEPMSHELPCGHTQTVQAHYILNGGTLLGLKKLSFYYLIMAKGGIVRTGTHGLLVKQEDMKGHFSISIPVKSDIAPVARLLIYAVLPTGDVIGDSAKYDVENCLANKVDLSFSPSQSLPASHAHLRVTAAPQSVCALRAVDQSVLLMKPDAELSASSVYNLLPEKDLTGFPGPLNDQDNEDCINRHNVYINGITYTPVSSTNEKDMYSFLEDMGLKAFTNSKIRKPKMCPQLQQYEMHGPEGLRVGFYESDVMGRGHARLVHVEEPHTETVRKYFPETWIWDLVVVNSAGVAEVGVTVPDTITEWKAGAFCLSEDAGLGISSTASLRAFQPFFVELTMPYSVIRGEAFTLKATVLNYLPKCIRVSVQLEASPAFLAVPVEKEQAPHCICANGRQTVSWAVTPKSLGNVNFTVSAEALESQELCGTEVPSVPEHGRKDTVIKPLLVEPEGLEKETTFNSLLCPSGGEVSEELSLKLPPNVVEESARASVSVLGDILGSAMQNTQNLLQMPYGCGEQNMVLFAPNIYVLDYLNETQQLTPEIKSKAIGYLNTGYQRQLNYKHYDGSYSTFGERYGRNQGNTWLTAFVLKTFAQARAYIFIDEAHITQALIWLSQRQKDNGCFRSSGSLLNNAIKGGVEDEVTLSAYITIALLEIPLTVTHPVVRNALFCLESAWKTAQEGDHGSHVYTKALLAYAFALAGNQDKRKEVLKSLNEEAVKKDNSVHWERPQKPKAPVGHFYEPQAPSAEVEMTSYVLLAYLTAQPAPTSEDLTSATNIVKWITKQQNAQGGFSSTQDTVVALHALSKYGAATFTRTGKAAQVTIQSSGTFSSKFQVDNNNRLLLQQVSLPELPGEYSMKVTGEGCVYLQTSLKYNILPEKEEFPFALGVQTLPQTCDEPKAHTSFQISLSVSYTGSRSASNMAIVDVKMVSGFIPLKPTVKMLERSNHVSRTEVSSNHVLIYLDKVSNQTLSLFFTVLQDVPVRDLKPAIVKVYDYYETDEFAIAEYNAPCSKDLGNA

B1: modified MT-SP1 CB483 (I41T/Y146D/G151L/Q175D/K224N) protease domain (enzyme)
chain: VVGGTDADEGEWPWQVSLHALGQGHTCGASLISPNWLVSAAHCYIDDRGFRYSDPTQWTAFLGLHDQSQRSAPGVQERRLKRIISHPFFNDFTFDYDIALLELEKPAEYSSMVRPICLPDASHVFPAGKAIWVTGWGHTQDGGTLALILQKGEIRVINQTTCENLLPQDITPRMMCVGFLSGGVDSCQGDSGGPLSSVEADGRIFQAGVVSWGDGCAQRNNPGVYTRLPLFRDWIKENTGV
B2: modified MT-SP1 CB478 (I41T/Y146D/Q175D/K224N) protease domain (enzyme)
chain: VVGGTDADEGEWPWQVSLHALGQGHTCGASLISPNWLVSAAHCYIDDRGFRYSDPTQWTAFLGLHDQSQRSAPGVQERRLKRIISHPFFNDFTFDYDIALLELEKPAEYSSMVRPICLPDASHVFPAGKAIWVTGWGHTQDGGTGALILQKGEIRVINQTTCENLLPQDITPRMMCVGFLSGGVDSCQGDSGGPLSSVEADGRIFQAGVVSWGDGCAQRNNPGVYTRLPLFRDWIKENTGV
B3: modified MT-SP1 CB489 (I41T/Y146E/G151L/Q175D/K224L) protease domain (enzyme)
chain: VVGGTDADEGEWPWQVSLHALGQGHTCGASLISPNWLVSAAHCYIDDRGFRYSDPTQWTAFLGLHDQSQRSAPGVQERRLKRIISHPFFNDFTFDYDIALLELEKPAEYSSMVRPICLPDASHVFPAGKAIWVTGWGHTQEGGTLALILQKGEIRVINQTTCENLLPQDITPRMMCVGFLSGGVDSCQGDSGGPLSSVEADGRIFQAGVVSWGDGCAQRNLPGVYTRLPLFRDWIKENTGV
B4: modified MT-SP1 CB476 (I41T/Y146D/Q175D/K224L) protease domain (enzyme)
chain: VVGGTDADEGEWPWQVSLHALGQGHTCGASLISPNWLVSAAHCYIDDRGFRYSDPTQWTAFLGLHDQSQRSAPGVQERRLKRIISHPFFNDFTFDYDIALLELEKPAEYSSMVRPICLPDASHVFPAGKAIWVTGWGHTQDGGTGALILQKGEIRVINQTTCENLLPQDITPRMMCVGFLSGGVDSCQGDSGGPLSSVEADGRIFQAGVVSWGDGCAQRNLPGVYTRLPLFRDWIKENTGV
B5: modified MT-SP1 CB477 (I41T/Y146D/Q175D/K224R) protease domain (enzyme)
chain: VVGGTDADEGEWPWQVSLHALGQGHTCGASLISPNWLVSAAHCYIDDRGFRYSDPTQWTAFLGLHDQSQRSAPGVQERRLKRIISHPFFNDFTFDYDIALLELEKPAEYSSMVRPICLPDASHVFPAGKAIWVTGWGHTQDGGTGALILQKGEIRVINQTTCENLLPQDITPRMMCVGFLSGGVDSCQGDSGGPLSSVEADGRIFQAGVVSWGDGCAQRNRPGVYTRLPLFRDWIKENTGV
B6: modified MT-SP1 CB482 (I41T/Y146D/G151L/Q175D/K224R) protease domain (enzyme)
chain: VVGGTDADEGEWPWQVSLHALGQGHTCGASLISPNWLVSAAHCYIDDRGFRYSDPTQWTAFLGLHDQSQRSAPGVQERRLKRIISHPFFNDFTFDYDIALLELEKPAEYSSMVRPICLPDASHVFPAGKAIWVTGWGHTQDGGTLALILQKGEIRVINQTTCENLLPQDITPRMMCVGFLSGGVDSCQGDSGGPLSSVEADGRIFQAGVVSWGDGCAQRNRPGVYTRLPLFRDWIKENTGV
B7: modified MT-SP1 CB487 (I41T/Y146E/G151L/Q175D/K224N) protease domain (enzyme)
chain: VVGGTDADEGEWPWQVSLHALGQGHTCGASLISPNWLVSAAHCYIDDRGFRYSDPTQWTAFLGLHDQSQRSAPGVQERRLKRIISHPFFNDFTFDYDIALLELEKPAEYSSMVRPICLPDASHVFPAGKAIWVTGWGHTQEGGTLALILQKGEIRVINQTTCENLLPQDITPRMMCVGFLSGGVDSCQGDSGGPLSSVEADGRIFQAGVVSWGDGCAQRNNPGVYTRLPLFRDWIKENTGV
B8: modified MT-SP1 CB421 (I41T/Y146D/Q175D/K224F) protease domain (enzyme)
chain: VVGGTDADEGEWPWQVSLHALGQGHTCGASLISPNWLVSAAHCYIDDRGFRYSDPTQWTAFLGLHDQSQRSAPGVQERRLKRIISHPFFNDFTFDYDIALLELEKPAEYSSMVRPICLPDASHVFPAGKAIWVTGWGHTQDGGTGALILQKGEIRVINQTTCENLLPQDITPRMMCVGFLSGGVDSCQGDSGGPLSSVEADGRIFQAGVVSWGDGCAQRNFPGVYTRLPLFRDWIKENTGV
B9: modified MT-SP1 CB480 (I41T/Y146D/G151L/Q175D/K224F) protease domain (enzyme)
chain: VVGGTDADEGEWPWQVSLHALGQGHTCGASLISPNWLVSAAHCYIDDRGFRYSDPTQWTAFLGLHDQSQRSAPGVQERRLKRIISHPFFNDFTFDYDIALLELEKPAEYSSMVRPICLPDASHVFPAGKAIWVTGWGHTQDGGTLALILQKGEIRVINQTTCENLLPQDITPRMMCVGFLSGGVDSCQGDSGGPLSSVEADGRIFQAGVVSWGDGCAQRNFPGVYTRLPLFRDWIKENTGV
B10: modified MT-SP1 CB485 (I41T/Y146E/Q175D/K224L) protease domain (enzyme)
chain: VVGGTDADEGEWPWQVSLHALGQGHTCGASLISPNWLVSAAHCYIDDRGFRYSDPTQWTAFLGLHDQSQRSAPGVQERRLKRIISHPFFNDFTFDYDIALLELEKPAEYSSMVRPICLPDASHVFPAGKAIWVTGWGHTQEGGTGALILQKGEIRVINQTTCENLLPQDITPRMMCVGFLSGGVDSCQGDSGGPLSSVEADGRIFQAGVVSWGDGCAQRNLPGVYTRLPLFRDWIKENTGV
B11: modified MT-SP1 CB481 (I41T/Y146D/G151L/Q175D/K224L) protease domain (enzyme)
chain: VVGGTDADEGEWPWQVSLHALGQGHTCGASLISPNWLVSAAHCYIDDRGFRYSDPTQWTAFLGLHDQSQRSAPGVQERRLKRIISHPFFNDFTFDYDIALLELEKPAEYSSMVRPICLPDASHVFPAGKAIWVTGWGHTQDGGTLALILQKGEIRVINQTTCENLLPQDITPRMMCVGFLSGGVDSCQGDSGGPLSSVEADGRIFQAGVVSWGDGCAQRNLPGVYTRLPLFRDWIKENTGV
B12: modified MT-SP1 CB488 (I41T/Y146E/G151L/Q175D/K224F) protease domain (enzyme)
chain: VVGGTDADEGEWPWQVSLHALGQGHTCGASLISPNWLVSAAHCYIDDRGFRYSDPTQWTAFLGLHDQSQRSAPGVQERRLKRIISHPFFNDFTFDYDIALLELEKPAEYSSMVRPICLPDASHVFPAGKAIWVTGWGHTQEGGTLALILQKGEIRVINQTTCENLLPQDITPRMMCVGFLSGGVDSCQGDSGGPLSSVEADGRIFQAGVVSWGDGCAQRNFPGVYTRLPLFRDWIKENTGV
B13: modified MT-SP1 CB422 (I41T/Y146E/Q175D/K224N) protease domain (enzyme)
chain: VVGGTDADEGEWPWQVSLHALGQGHTCGASLISPNWLVSAAHCYIDDRGFRYSDPTQWTAFLGLHDQSQRSAPGVQERRLKRIISHPFFNDFTFDYDIALLELEKPAEYSSMVRPICLPDASHVFPAGKAIWVTGWGHTQEGGTGALILQKGEIRVINQTTCENLLPQDITPRMMCVGFLSGGVDSCQGDSGGPLSSVEADGRIFQAGVVSWGDGCAQRNNPGVYTRLPLFRDWIKENTGV
B14: modified MT-SP1 CB486 (I41T/Y146E/Q175D/K224R) protease domain (enzyme)
chain: VVGGTDADEGEWPWQVSLHALGQGHTCGASLISPNWLVSAAHCYIDDRGFRYSDPTQWTAFLGLHDQSQRSAPGVQERRLKRIISHPFFNDFTFDYDIALLELEKPAEYSSMVRPICLPDASHVFPAGKAIWVTGWGHTQEGGTGALILQKGEIRVINQTTCENLLPQDITPRMMCVGFLSGGVDSCQGDSGGPLSSVEADGRIFQAGVVSWGDGCAQRNRPGVYTRLPLFRDWIKENTGV

target: T1, alpha-2 macroglobulin (in human plasma); experiment: Ac-RQAR-AMC activity of protease after 5 min in human citrated plasma, with and without M84R ecotin
Method: In addition, the percent protease unbound by alpha-2 macroglobulin (a2M) also was determined. Inactivation of a protease by alpha-2 macroglobulin traps the protease in a complex where it is still able to turn over small fluorescent substrates, but unable to access large protein substrates. This property of alpha-2 macroglobulin complicates the assessment of a proteases activity in plasma. To determine the actual activity of the free, uncomplexed protease in plasma, a two step measurement is required. First, the sample's activity on fluorescent substrates is measured. […] The percent unbound by alpha-2 macroglobulin activity is the percentage of the plasma residual activity that is inhibited by the addition of the ecotin. Briefly, in a 0.2 mL PCR tube, 1 μL 10× protease was mixed with 9 μL human plasma in citrate (Innovative Research). A uninhibted control also was prepeared containing 1 μL 10× protease mixed with 9 μL PBST. The mixtures were incubated for 5 minutes at 37° C. The samples were diluted 250 fold in PBST and stored on ice. Two 50 μL aliquots for each sample were transferred to an opaque assay plate (Costar #3694) containing 2 μL PBST or 2 μL 520 nM M84R ecotin. The plates were incubated 10 minutes at room temperature. Five microliters 0.4 mM Ac-RQAR-AMC substrate was added and the fluorescence was measured over time with a SpectraMax M5 spectrafluorometer (Molecular Devices) set to read every 20 seconds for 30 minutes at 30° C. (Ex: 380 nm, EM: 450 nm, Cut-off: 435 nm). The percent unbound by alpha-2 macroglobulin was calculated with the following formula: (1-([(Protease in plasma/Protease in PBST)−(Protease in plasma+ecotin/Protease in PBST)]/(Protease in plasma/Protease in PBST)))*100.

Binder | % Unbound by a2M [%]
B1 | 73
B2 | 89
B3 | 58
B4 | 89
B5 | 67
B6 | 10
B7 | 53
B8 | 84
B9 | 88
B10 | 82
B11 | 72
B12 | 85
B13 | 83
B14 | 44
